Substrate in this series: OC[C@H]1O[C@@H](O[C@H]2C(O)O[C@H](CO)[C@@H](O)[C@@H]2O)[C@H](O)[C@@H](O)[C@@H]1O
Description: purified protein, by the assay type. The conditions noted are these: other: sophorose substrate; Gawronski phosphate release assay; 37.0 °C.

The values below come from patent US20260078420A1.

B1: Rhizobium tropici β-1,2-glucan phosphorylase (RtSOGP, B6), wild type, SEQ ID NO: 11 (Martinezella tropici) (protein)
chain: MSSGTNRSFQTPRREELGLITLSNTAGLSASALPNGTLFSIDFADQQGGVMINQVLGSPVYGGIGRLYLRIGGAKPATAEIVGPKAAVQFGHGKSGFSWSGETAGVKHTISLRLHPNKTAWFWQVSLENSSNATLSADLVLVQDVGLGDRGFLMNSEAYASQYIDHHIADHSAFGPVIMVRQNLKQGGGRNPWLAQGCLEGAAAYATDAIQLLVPSKGNDGVMVPDFGTSLPSARRQHEVACPTIQSKPLALAAGAKATTTFFGLFIADHPAASSDADLAHLDGLPALQSELAAETISAGQPVRSLLQDAPLAESDDLDQAALDALYPRRMLEEHADGKLLSFFVPDGPHNRHIVLREKERLVARRHGAIVRSGQNMLLDDQTLAATCWMQGIFAAQLTIGNTSFHKLFSVSRDPYNLTRSSGLRILVDLGDGWRLLGVPAAFEMGLSDTRWIYRLPGRTIIVSAIASGDDPAMQWSVSVEGAACRFLVFGQIVLGERDYEAVANIAVDTAGKRISFQPQPSWLWDRYPKAGYHLVTSTPDAFEAIGGDELLYSDSTARNGPFIALKSHPTKALRFAVTGSMTDAQAAEALAARYTTGVESEEMLAPARRFWSHVTRGARIEGDGRDVAAQAVMLPWIAHDAIVHLSVPHGLEQYTGAAWGTRDVCQGPIEFLLAYEHDEEVRQILLTLFSEQYRDRGDWPQWFMLEPYANIRAGEAHGDIVVWPLKALCDYIEATGDIAFLAKTVPWRADDTMQLTSEHATISDHIEKLLDTVRSRFVPGTSLIRYGEGDWNDSLQPADPHLRDWMVSSWTVSLLYEQLVRYANILTLANRNDEAQSLQATAVAMRADFNRLLMRDGIVAGYGVFDPSHDGVELLLHPEDTRTGLHYSLIAMTQPMIGGLFAPEQRHAHMKIIRANLLFPDGVRLMEKPATYSGGPEKLFRRAESSSFFGREIGLMYVHAHLRYCEALALDDDAEAVWAALALANPIAVSGRVEHASLRQRNTYFSSSDAAFEDRYQASAEWTRVKAGDIAVDGGWRIYSSGPGLYTKSLIGNVFGFKRQFGQRIRKPLLPASIGACEVKLDFKA
On to B1, for which the Km was 70 µM, the Vmax amounted to 24 µmol/min/mg, the kcat worked out at 50 s⁻¹ and the kcat/Km came out at 717000 M⁻¹ s⁻¹.

One may read the Km as the substrate concentration at which the rate is half of its maximum. The Vmax is the top rate of the reaction or transport when substrate is in excess. A word on the kcat: it is the number of substrate molecules converted per active site and unit of time at saturation. For orientation: kcat/Km means the turnover number divided by the Michaelis constant.
